Test results reported in publication PMC5053900 (The FEBS journal, 2016).
Where a chain is given by its changes, count along the chain named. Numbers in names are those of the source. Like-named read-outs stand apart in the source and are kept apart here.

B1: SAMP1, small ubiquitin-like archaeal modifier protein 1, purified (natural protein, Haloferax volcanii, UniProt D4GUF6 1-87, looked up)
chain: MEWKLFADLAEVAGSRTVRVDVDGDATVGDALDALVGAHPALESRVFGDDGELYDHINVLRNGEAAALGEATAAGDELALFPPVSGG
B2: UbaA, E1-like SAMP-activating enzyme of Haloferax volcanii, purified wild type (enzyme, UniProt D4GSF3 1-270, looked up)
chain: MTLSLDATQLDRYSRHIIMDEVGPEGQGRLLSSRVVVVGAGGLGAPAIQYLAAVGVGELVVVDDDVVERSNLQRQVVHCDDDVGTPKAESAAAFVRGLNPDVSVEPVEARVDKSNVHEVVAGSDVVVDASDNFPTRYLLNDVCRFEGIPLVHGAIYKFEGQATTLVPDGPCYRCLFPEAPEPGTVPDCATTGVLGVLPGTVGCIQATEAMKLLLDEGEALDGRLLFYDAMDMTFETVPYRTNPDCPVCGEGGVDSIEDIDYVESCAISLD
B3: UbaA C188A, purified (enzyme, Haloferax volcanii, UniProt D4GSF3 1-270, looked up)
chain: B2 chain with C188A
B4: UbaA K87R, purified (enzyme, Haloferax volcanii, UniProt D4GSF3 1-270, looked up)
chain: B2 chain with K87R
B5: UbaA D131N, purified (enzyme, Haloferax volcanii, UniProt D4GSF3 1-270, looked up)
chain: B2 chain with D131N
B6: SAMP2, small ubiquitin-like archaeal modifier protein 2, purified (natural protein, Haloferax volcanii, UniProt D4GZE7 1-66, looked up)
chain: MNVTVEVVGEETSEVAVDDDGTYADLVRAVDLSPHEVTVLVDGRPVPEDQSVEVDRVKVLRLIKGG

Tests used:
[1] = biological target: B2; assay: ITC
[2] = biological target: B2; assay: ITC; remark: listed apart in the source
[3] = biological target: B2; assay: ITC; remark: listed apart in the source
[4] = biological target: B2; assay: ITC; remark: listed apart in the source
[5] = biological target: the molecule itself; assay: SEC

| Binder | Ka [4] [M⁻¹] | Kd [4] [µM] | dH [4] [kcal/mol] | stoichiometry N [4] | stoichiometry N [5] | also measured |
| --- | --- | --- | --- | --- | --- | --- |
| B1 | 850000 | 1.2 | 2.92 | 0.98 |  | Ka [1]: 590000 M⁻¹; Kd [1]: 1.7 µM; dH [1]: 8.65 kcal/mol; stoichiometry N [1]: 0.95; Ka [2]: 230000 M⁻¹; Kd [2]: 4.4 µM; dH [2]: 4.95 kcal/mol; stoichiometry N [2]: 0.95; Ka [3]: 250000 M⁻¹; Kd [3]: 4.1 µM; dH [3]: 3.82 kcal/mol; stoichiometry N [3]: 1.02 |
| B2 |  |  |  |  | 2 |  |
| B3 |  |  |  |  | 2 |  |
| B4 |  |  |  |  | 2 |  |
| B5 |  |  |  |  | 2 |  |
| B6 | 230000 | 4.3 | -16.5 | 0.99 |  |  |
